From paper PMC5904244, “Oligomeric states in sodium ion-dependent regulation of cyanobacterial histidine kinase-2” (Protoplasma, 2017)
Where “and” joins values, the source holds several entries; their conditions need not be identical. Identical values can stand only once.

B1: truncated core kinase domain of Thermosynechococcus elongatus BP-1 Hik2 containing only the DHp and CA subdomains (domain or fragment, UniProt Q8DMC5 142-385, looked up)
chain: SHSPAQPLDQRQQRFDDLLHQLRNPVAAIRTFVKLLLKRLEPDHKGRPLAEGIAKETERLMALLEDYRQQRNDIPALTGSQPLPLAGKPLDLAETLLPLISAAQARAEMEGKTFVVEIPPQLPPIWLEERVLQEVVGNLLDNAFKYTPKGGTIGLRLMLSSPALELTVWDTGCGIPKEAQPRLFERGYRGVQADSGIEGSGLGLAIAQDLLRPYGLSLRVTSPYAGDRGTAFTLAIPWQMKVEP
notes: Hik2 (tlr0195), Thermosynechococcus elongatus BP-1, kinase domain (DHp and CA), amino acids 142-386; calculated molecular mass 26.2 kDa; The forward primer has catatgATG, so added N-terminal Met residues are likely; A C-terminal His tag from the vector is surmised
B2: truncated DHp domain of Thermosynechococcus elongatus BP-1 Hik2 (domain or fragment, UniProt Q8DMC5 142-270, looked up)
chain: SHSPAQPLDQRQQRFDDLLHQLRNPVAAIRTFVKLLLKRLEPDHKGRPLAEGIAKETERLMALLEDYRQQRNDIPALTGSQPLPLAGKPLDLAETLLPLISAAQARAEMEGKTFVVEIPPQLPPIWLEE
notes: Hik2 (tlr0195), Thermosynechococcus elongatus BP-1, DHp domain, amino acids 142-270; calculated molecular mass 15.1 kDa; The forward primer has catatgATG, so added N-terminal Met residues are likely; A C-terminal His tag from the vector is surmised
B3: full-length Thermosynechococcus elongatus BP-1 Hik2 (enzyme, UniProt Q8DMC5 1-385, looked up)
chain: MLWPASEEFAALCRTQLELVVNSLGASSLAVYLSETLNDSPSWSPVAVYPEAASLLSLAIPPTLPPPTQVPETSLSHYPQQVVSSLANQLILPLMYQNWVLGVLVAQRQHRPWLAAEQAQLQQVAQTLAIACVLDQRQQWLSHSPAQPLDQRQQRFDDLLHQLRNPVAAIRTFVKLLLKRLEPDHKGRPLAEGIAKETERLMALLEDYRQQRNDIPALTGSQPLPLAGKPLDLAETLLPLISAAQARAEMEGKTFVVEIPPQLPPIWLEERVLQEVVGNLLDNAFKYTPKGGTIGLRLMLSSPALELTVWDTGCGIPKEAQPRLFERGYRGVQADSGIEGSGLGLAIAQDLLRPYGLSLRVTSPYAGDRGTAFTLAIPWQMKVEP
notes: Histidine kinase 2 (Hik2), tlr0195, Thermosynechococcus elongatus BP-1, full length; calculated molecular mass 44.2 kDa; The forward primer has catatgATG, so one extra N-terminal Met may be present; A C-terminal His tag from the vector is surmised
B4: full-length Synechocystis sp. PCC 6803 histidine kinase 2 (Hik2) (enzyme, UniProt P73276 1-434, looked up)
chain: MAGSISSMYSPSAGLISLCQSQVRLLQQGLRVDWCGVYLNQEETEQGLVPLVVSHGSTLVESESYGLISLPQGEVSPPMDDFSLPAVPVGVGQLSRRSRLEPPPFDADKRLVLPLVYGEEMVGLLVIHRSQGQWHGEEMMQLEAIAKSLAVACLLDQQQDWYRQAWEEQNQQYQWERQHWADLLHQLRNPLTALKTFSKLLLKRWHGDNKSQQVVEGIVRQGEHLQELLQSFEASQSQGPEAVPLLSSSPVTTIQVLPPADRVETMPLANFSLGEVLPPILLAHQAIAAERNITLTAQIALIDTVVMANRLALREVVNNLLDNGIKYTPNGGLVEVSLALEKVSSSGMDWATLAIADTGYGIPPEDQQKIFERNYRGVQGRGSINGTGLGLAIVADLVAQMGGKITVTSPNGLSRDPDQPGSTFTLWLRSGEQV
notes: Histidine kinase 2 (Hik2), slr1147, Synechocystis sp; PCC 6803, full length; calculated molecular mass 48.5 kDa

Legend:
[1] = target: the molecule itself; assay: SEC; Superdex 200 10/300GL, 20 mM Tris-HCl pH 7.6, 500 mM NaCl (high salt); apparent molecular masses from a calibration curve
[2] = target: the molecule itself; assay: SEC; Superdex 200 10/300GL, 20 mM Tris-HCl pH 7.6, 10 mM NaCl (low salt); apparent molecular masses from a calibration curve
[3] = target: the molecule itself; assay: cross-linking; DSP (1-11 mM; 2 mM in later experiments), 2-50 uM Hik2, 25 mM HEPES-NaOH pH 7.5, 5 mM KCl, 5 mM MgCl2, 23 °C, 10 min; no NaCl treatment; non-reducing 10% SDS-PAGE, Coomassie
[4] = target: the molecule itself; assay: negative-stain transmission electron microscopy, single-particle analysis; dilution series on carbon-coated grids, 2% uranyl acetate; class averages assigned subjectively to oligomeric families; buffer and salt not stated

| Protein | stoichiometry N [1] | stoichiometry N [2] | stoichiometry N [3] | stoichiometry N [4] |
| --- | --- | --- | --- | --- |
| B1 | 4 | 6 |  |  |
| B2 | 6 | 8 |  |  |
| B3 | 4 | 6 |  |  |
| B4 |  |  | 4 and 6 and 8 | 2 and 3 |
